# B1: L149M (protein)
# chain: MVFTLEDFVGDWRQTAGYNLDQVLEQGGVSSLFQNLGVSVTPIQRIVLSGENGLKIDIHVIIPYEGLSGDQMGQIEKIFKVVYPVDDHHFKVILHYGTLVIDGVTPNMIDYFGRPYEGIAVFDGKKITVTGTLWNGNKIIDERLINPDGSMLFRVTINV
# B2: 11S: NLpoly variant 11S (12S-51) (protein)
# chain: MVFTLEDFVGDWEQTAAYNLDQVLEQGGVSSLLQNLAVSVTPIQRIVRSGENALKIDIHVIIPYEGLSADQMAQIEEVFKVVYPVDDHHFKVILPYGTLVIDGVTPNMLNYFGRPYEGIAVFDGKKITVTGTLWNGNKIIDERLITPDGSMLFRVTINS
# Experiments:
# [1] = target: wild-type non-luminescent polypeptide (Oplophorus gracilirostris, UniProt Q9GV45, A31E/A60N/A81I/F95D/I117V/K70R/L54V/L99Q/M102K/P142E/Q151K/Q38R/Q45L/V71I/Y165I); assay: NLpep mutant luminescence with wild-type NLpoly lysate (Examples 7, 8, 12, 13); details: mutations based on alignment to fatty acid binding proteins
# wild-type non-luminescent polypeptide, sequence (Q9GV45 other isoform, or with tags, fused parts or gaps with the stated changes): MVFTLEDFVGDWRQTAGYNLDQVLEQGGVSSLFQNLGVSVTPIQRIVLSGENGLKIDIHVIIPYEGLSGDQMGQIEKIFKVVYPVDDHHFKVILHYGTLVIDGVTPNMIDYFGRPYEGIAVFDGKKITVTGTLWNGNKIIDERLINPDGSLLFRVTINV
# [2] = target: 5P (Oplophorus gracilirostris, UniProt Q9GV45, A31E/A60N/A81I/D135N/F95D/G42A/G62A/G78A/G94A/G98A/I117V/K70R/L176M/L54V/L99Q/M102K/N171T/P142E/Q151K/Q38E/Q45L/V71I/Y165I); assay: Titration of 5P with NLpep88-HT (Example 47); format: biochemical; details: lower concentrations of NLpep88
# 5P, sequence (Q9GV45 other isoform, or with tags, fused parts or gaps with the stated changes): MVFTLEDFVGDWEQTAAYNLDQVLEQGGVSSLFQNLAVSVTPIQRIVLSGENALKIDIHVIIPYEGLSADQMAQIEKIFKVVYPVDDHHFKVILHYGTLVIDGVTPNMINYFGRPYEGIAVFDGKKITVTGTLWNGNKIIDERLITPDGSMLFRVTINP
# [3] = target: 11S (Oplophorus gracilirostris, UniProt Q9GV45, A31E/A60N/A81I/D135N/F58L/F95D/G42A/G62A/G78A/G94A/G98A/H120P/I103V/I117V/I134L/K70R/L176M/L54V/L73R/L99Q/M102E/N171T/P142E/Q151K/Q38E/Q45L/V71I/Y165I); assay: Substrate effect on 11S/NLpep79 Kd (Example 55); format: binding; details: saturating (50 uM) vs sub-saturating (5 uM) furimazine
# [4] = target: T1, […] (Oplophorus gracilirostris, UniProt Q9GV45); assay: Luminescence of non-luminescent polypeptide mutants upon complementation (Example 5, Table 4); details: complementation with peptide […]; induced E. coli culture, NANOGLO reagent
# [5] = target: T1, […]; assay: as above; details: complementation with peptide […]; induced E. coli culture, NANOGLO reagent; remark: listed apart in the source
# [6] = Luminescence of NLpoly without NLpep (Example 57); format: biochemical; details: E. coli clarified lysate, NanoGlo+Fz
# Procedure: 50 uL of each lysate and 50 uL NanoGlo+Fz were mixed and incubated for 5 min RT. Luminescence was measured on GloMax® Multi+ with 0.5 sec integration.
# [7] = test system: NLpep78-HT or NLpep79-HT; assay: NLpoly variant luminescence without NLpep, with NLpep78-HT or NLpep79-HT (Examples 62, 93); format: biochemical; details: E. coli expression culture
# Procedure: Single NLpoly variant colonies were inoculated with 200 uL minimal media and grown for 20 hrs at 37° C. on a shaker. 10 uL of the overnight culture were diluted into 190 uL fresh minimal media and grown for 20 hrs at 37° C. on a shaker. 10 uL of this overnight culture was then diluted into 190 uL auto-induction media (previously described) and grown for 18 hrs at 25° C. on a shaker. 10 uL of this expression culture was mixed with 40 uL of assay lysis buffer (previously described) without NLpep or NLpep78-HT (1:3,860 dilution) or NLpep79-HT (1:10,000 dilution) and shaken for 10 min at RT. 50 uL of NanoGlo+Fz was added and again shake for 10 min at RT. Luminescence was measured on GloMax® luminometer with 0.5 sec integration. FIGS. 105-107 illustrate the luminescence of various NLpolys in the absence of NLpep.
# A single colony of various NLpolys were inoculated individually into 200 uL minimal media and grown for 20 hrs at 37° C. on shaker. […] 10 uL of this overnight culture was diluted into 190 uL auto-induction media (previously described) and grow for 18 hrs at 25° C. on shaker. 10 uL of the expression culture was mixed with 40 uL of assay lysis buffer (previously described) without NLpep or with NLpep78-HT (1:3,860 dilution) or NLpep79-HT (1:10,000 dilution).
# [8] = test system: NLpep79; assay: Substrate specificity of NLpoly 5P and 11S with NLpep79 (Example 97); format: biochemical; details: with NLpep79, 11S compared with 5P
# Procedure: E. coli clarified lysates were prepared for NLpoly 5P or 11S as described previously. The NLpoly lysates were then serially diluted in steps of 10-fold into PBS+0.1% Prionex.
molecule,measurement,setting,value
GVTAWRLCERILA [NLpep3],activity (luminescence) of single-mutation NLpep with wild-type NLpoly,[1],not likely to be tolerated
DVTGWRLCERILA [NLpep2],activity (luminescence) of single-mutation NLpep with wild-type NLpoly,[1],retains/improves activity
NVSGWGLFKKISN [NLpep88],luminescence of 5P titrated with NLpep88-HT,[2],no increase in luminescence above 5P alone
GVTGWRLCERISA [NLpep5],activity (luminescence) of single-mutation NLpep with wild-type NLpoly,[1],retains/improves activity
NVTGYRLFKKISN [NLpep79],affinity between 11S and NLpep79,[3],increase the affinity
GVTGWRLCKRILA [NLpep4],activity (luminescence) of single-mutation NLpep with wild-type NLpoly,[1],retains/improves activity
B1,"luminescence relative to wild-type, RLU(mutant)/RLU(WT)",[4],2.89 RLU(mutant)/RLU(WT)
same,"luminescence relative to wild-type, RLU(mutant)/RLU(WT)",[5],2.16 RLU(mutant)/RLU(WT)
B2,luminescence in the absence of NLpep relative to WT NLpoly,[6],~500 fold
same,luminescence of NLpoly variant without NLpep or with NLpep78 or NLpep79,[7],improved luminescence over the other variants
same,substrate specificity for furimazine,[8],superior specificity for furimazine than 5P
